Assay results reported in paper PMC9546532 (Proceedings of the National Academy of Sciences of the …, 2022).

Target: T1, Ela1^(1-143) of the Elc1/Ela1^(1-143) complex (separate chains) (S. cerevisiae, UniProt P53861 1-143)
T1 sequence (looked up): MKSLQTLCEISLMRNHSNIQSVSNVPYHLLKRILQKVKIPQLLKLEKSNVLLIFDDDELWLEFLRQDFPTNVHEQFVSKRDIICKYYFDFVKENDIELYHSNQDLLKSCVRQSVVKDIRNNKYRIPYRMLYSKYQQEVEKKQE
Assay: SEC + AUC

binding result: binds
B1: Elc1 of the Elc1/Ela1^(1-143) complex (separate chains) (natural protein, S. cerevisiae, UniProt Q03071 1-99, looked up)
chain: MSQDFVTLVSKDDKEYEISRSAAMISPTLKAMIEGPFRESKGRIELKQFDSHILEKAVEYLNYNLKYSGVSEDDDEIPEFEIPTEMSLELLLAADYLSI
